Consider eight variants from IntAct's records for PubMed 29892012.

The labels stand for the following.
B1: Enhancer of mRNA-decapping protein 3 (Homo sapiens), Q96F86 (parent)
chain: MATDWLGSIVSINCGDSLGVYQGRVSAVDQVSQTISLTRPFHNGVKCLVPEVTFRAGDITELKILEIPGPGDNQHFGDLHQTELGPSGAGCQVGINQNGTGKFVKKPASSSSAPQNIPKRTDVKSQDVAVSPQQQQCSKSYVDRHMESLSQSKSFRRRHNSWSSSSRHPNQATPKKSGLKNGQMKNKDDECFGDDIEEIPDTDFDFEGNLALFDKAAVFEEIDTYERRSGTRSRGIPNERPTRYRHDENILESEPIVYRRIIVPHNVSKEFCTDSGLVVPSISYELHKKLLSVAEKHGLTLERRLEMTGVCASQMALTLLGGPNRLNPKNVHQRPTVALLCGPHVKGAQGISCGRHLANHDVQVILFLPNFVKMLESITNELSLFSKTQGQQVSSLKDLPTSPVDLVINCLDCPENVFLRDQPWYKAAVAWANQNRAPVLSIDPPVHEVEQGIDAKWSLALGLPLPLGEHAGRIYLCDIGIPQQVFQEVGINYHSPFGCKFVIPLHSA
partner: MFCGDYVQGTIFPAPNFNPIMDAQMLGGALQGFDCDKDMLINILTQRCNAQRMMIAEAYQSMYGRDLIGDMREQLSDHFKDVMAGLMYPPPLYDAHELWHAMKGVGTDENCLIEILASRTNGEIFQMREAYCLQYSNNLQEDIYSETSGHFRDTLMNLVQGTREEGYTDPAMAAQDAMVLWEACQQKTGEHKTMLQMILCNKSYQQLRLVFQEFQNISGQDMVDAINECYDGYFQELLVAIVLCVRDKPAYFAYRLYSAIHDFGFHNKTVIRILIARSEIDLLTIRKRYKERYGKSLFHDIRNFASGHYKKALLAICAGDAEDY
B2: Genetic suppressor element 1 (Homo sapiens), Q14687 (parent)
chain: MKGMSHEPKSPSLGMLSTATRTTATVNPLTPSPLNGALVPSGSPATSSALSAQAAPSSSFAAALRKLAKQAEEPRGSSLSSESSPVSSPATNHSSPASTPKRVPMGPIIVPPGGHSVPSTPPVVTIAPTKTVNGVWRSESRQDAGSRSSSGGRERLIVEPPLPQEKAGGPAIPSHLLSTPYPFGLSPSSVVQDSRFPPLNLQRPVHHVVPPSTVTEDYLRSFRPYHTTDDLRMSSLPPLGLDPATAAAYYHPSYLAPHPFPHPAFRMDDSYCLSALRSPFYPIPTPGSLPPLHPSAMHLHLSGVRYPPELSHSSLAALHSERMSGLSAERLQMDEELRREREREREREREREADREREKEREREREKEREQEKEREREKERERELERQREQRAREKELLAAKALEPSFLPVAELHGLRGHATEERGKPSEQLTPTRAEKLKDAGLQAPKPVQHPLHPVPTPHHTVPSLISNHGIFSLPSSSAATALLIQRTNEEEKWLARQRRLRQEKEDRQSQVSEFRQQVLEQHLDMGRPPVPAEAEHRPESTTRPGPNRHEPGGRDPPQHFGGPPPLISPKPQLHAAPTALWNPVSLMDNTLETRRAESHSLHSHPAAFEPSRQAAVPLVKVERVFCPEKAEEGPRKREPAPLDKYQPPPPPPREGGSLEHQPFLPGPGPFLAELEKSTQTILGQQRASLPQAATFGELSGPLKPGSPYRPPVPRAPDPAYIYDEFLQQRRRLVSKLDLEERRRREAQEKGYYYDLDDSYDESDEEEVRAHLRCVAEQPPLKLDTSSEKLEFLQLFGLTTQQQKEELVAQKRRKRRRMLRERSPSPPTIQSKRQTPSPRLALSTRYSPDEMNNSPNFEEKKKFLTIFNLTHISAEKRKDKERLVEMLRAMKQKALSAAVADSLTNSPRDSPAVSLSEPATQQASLDVEKPVGVAASLSDIPKAAEPGKLEQVRPQELSRVQELAPASGEKARLSEAPGGKKSLSMLHYIRGAAPKDIPVPLSHSTNGKSKPWEPFVAEEFAHQFHESVLQSTQKALQKHKGSVAVLSAEQNHKVDTSVHYNIPELQSSSRAPPPQHNGQQEPPTARKGPPTQELDRDSEEEEEEDDEDGEDEEEVPKRKWQGIEAVFEAYQEHIEEQNLERQVLQTQCRRLEARHYSLSLTAEQLSHSVAELRSQKQKMVSERERLQAELDHLRKCLALPAMHWPRGYLKGYPR
partner: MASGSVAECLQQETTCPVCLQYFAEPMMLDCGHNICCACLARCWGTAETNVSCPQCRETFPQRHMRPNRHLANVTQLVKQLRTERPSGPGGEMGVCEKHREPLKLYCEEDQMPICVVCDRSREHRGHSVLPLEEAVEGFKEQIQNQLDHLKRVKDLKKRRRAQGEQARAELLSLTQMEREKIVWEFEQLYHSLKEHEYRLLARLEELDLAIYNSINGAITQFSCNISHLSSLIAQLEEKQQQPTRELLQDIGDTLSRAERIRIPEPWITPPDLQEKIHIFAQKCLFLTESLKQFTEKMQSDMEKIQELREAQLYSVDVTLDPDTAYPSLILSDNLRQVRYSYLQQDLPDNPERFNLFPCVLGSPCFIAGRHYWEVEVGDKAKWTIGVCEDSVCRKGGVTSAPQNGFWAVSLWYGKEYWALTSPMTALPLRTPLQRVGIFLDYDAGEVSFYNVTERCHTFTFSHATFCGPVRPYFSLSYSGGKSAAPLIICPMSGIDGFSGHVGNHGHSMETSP
B3: Protein VAC14 homolog (Homo sapiens), Q08AM6 (parent)
chain: MNPEKDFAPLTPNIVRALNDKLYEKRKVAALEIEKLVREFVAQNNTVQIKHVIQTLSQEFALSQHPHSRKGGLIGLAACSIALGKDSGLYLKELIEPVLTCFNDADSRLRYYACEALYNIVKVARGAVLPHFNVLFDGLSKLAADPDPNVKSGSELLDRLLKDIVTESNKFDLVSFIPLLRERIYSNNQYARQFIISWILVLESVPDINLLDYLPEILDGLFQILGDNGKEIRKMCEVVLGEFLKEIKKNPSSVKFAEMANILVIHCQTTDDLIQLTAMCWMREFIQLAGRVMLPYSSGILTAVLPCLAYDDRKKSIKEVANVCNQSLMKLVTPEDDELDELRPGQRQAEPTPDDALPKQEGTASGGPDGSCDSSFSSGISVFTAASTERAPVTLHLDGIVQVLNCHLSDTAIGMMTRIAVLKWLYHLYIKTPRKMFRHTDSLFPILLQTLSDESDEVILKDLEVLAEIASSPAGQTDDPGPLDGPDLQASHSELQVPTPGRAGLLNTSGTKGLECSPSTPTMNSYFYKFMINLLKRFSSERKLLEVRGPFIIRQLCLLLNAENIFHSMADILLREEDLKFASTMVHALNTILLTSTELFQLRNQLKDLKTLESQNLFCCLYRSWCHNPVTTVSLCFLTQNYRHAYDLIQKFGDLEVTVDFLAEVDKLVQLIECPIFTYLRLQLLDVKNNPYLIKALYGLLMLLPQSSAFQLLSHRLQCVPNPELLQTEDSLKAAPKSQKADSPSIDYAELLQHFEKVQNKHLEVRHQRSGRGDHLDRRVVL
partner: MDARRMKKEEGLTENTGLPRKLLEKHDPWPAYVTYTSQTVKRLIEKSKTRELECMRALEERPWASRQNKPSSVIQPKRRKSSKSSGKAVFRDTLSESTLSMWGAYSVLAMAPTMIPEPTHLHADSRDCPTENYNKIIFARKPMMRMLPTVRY
B4: Protein VAC14 homolog (Homo sapiens), Q08AM6 (parent)
chain: B3 chain
partner: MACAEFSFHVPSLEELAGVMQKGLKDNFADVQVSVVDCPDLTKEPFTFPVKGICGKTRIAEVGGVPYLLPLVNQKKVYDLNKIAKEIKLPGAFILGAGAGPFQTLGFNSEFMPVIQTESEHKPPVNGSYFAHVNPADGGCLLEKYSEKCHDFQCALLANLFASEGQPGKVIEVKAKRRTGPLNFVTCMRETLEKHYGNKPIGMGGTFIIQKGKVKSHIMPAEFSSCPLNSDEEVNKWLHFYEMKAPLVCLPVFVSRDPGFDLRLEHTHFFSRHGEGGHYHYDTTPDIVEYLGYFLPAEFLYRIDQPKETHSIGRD
B5: Protein VAC14 homolog (Homo sapiens), Q08AM6 (parent)
chain: B3 chain
partner: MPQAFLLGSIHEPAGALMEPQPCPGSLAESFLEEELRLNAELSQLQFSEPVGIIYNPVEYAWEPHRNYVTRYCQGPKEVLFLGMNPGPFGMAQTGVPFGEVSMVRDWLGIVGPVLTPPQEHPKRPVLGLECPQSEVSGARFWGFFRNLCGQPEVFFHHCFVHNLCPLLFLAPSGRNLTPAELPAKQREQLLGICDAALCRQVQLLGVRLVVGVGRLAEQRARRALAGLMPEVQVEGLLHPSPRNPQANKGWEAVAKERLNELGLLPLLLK
B6: Genetic suppressor element 1 (Homo sapiens), Q14687 (parent)
chain: B2 chain
partner: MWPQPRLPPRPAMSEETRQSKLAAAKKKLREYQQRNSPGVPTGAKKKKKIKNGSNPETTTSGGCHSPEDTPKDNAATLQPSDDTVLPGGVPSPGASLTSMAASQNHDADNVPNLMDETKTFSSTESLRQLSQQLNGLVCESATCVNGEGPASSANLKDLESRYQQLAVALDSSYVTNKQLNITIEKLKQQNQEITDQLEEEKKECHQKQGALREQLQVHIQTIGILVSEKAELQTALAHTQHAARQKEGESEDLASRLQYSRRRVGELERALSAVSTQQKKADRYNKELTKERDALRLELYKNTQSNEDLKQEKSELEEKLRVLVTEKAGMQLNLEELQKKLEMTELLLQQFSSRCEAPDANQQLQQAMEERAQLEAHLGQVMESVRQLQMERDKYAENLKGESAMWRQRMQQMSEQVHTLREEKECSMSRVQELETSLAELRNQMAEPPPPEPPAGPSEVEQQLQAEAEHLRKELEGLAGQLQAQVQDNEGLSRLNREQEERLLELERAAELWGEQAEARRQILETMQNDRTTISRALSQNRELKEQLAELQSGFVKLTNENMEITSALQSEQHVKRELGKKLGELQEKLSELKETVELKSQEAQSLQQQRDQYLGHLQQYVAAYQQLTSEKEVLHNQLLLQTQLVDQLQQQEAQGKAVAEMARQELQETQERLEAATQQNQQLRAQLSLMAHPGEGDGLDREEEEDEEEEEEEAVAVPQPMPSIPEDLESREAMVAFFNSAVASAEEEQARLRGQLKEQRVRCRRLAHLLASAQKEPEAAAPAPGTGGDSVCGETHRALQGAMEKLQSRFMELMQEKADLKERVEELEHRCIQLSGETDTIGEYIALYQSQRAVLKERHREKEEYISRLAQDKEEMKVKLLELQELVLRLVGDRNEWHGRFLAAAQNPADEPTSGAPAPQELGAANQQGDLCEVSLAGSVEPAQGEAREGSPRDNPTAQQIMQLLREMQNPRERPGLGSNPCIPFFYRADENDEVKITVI

The first assay covers variants of B1. To be noted: with anx10_human ANXA10, Q9UJ72.
For MATDWLGSIVSINCGDSLGVYQGRVSAVDQVSQTISLTRPFHNGVKCLVPEVTFRAGDITELKILEIPGPGDNQHFGDLHQTELGPSGAGCQVGINQNGTGKFVKKPASSSSAPQNIPKRTDVKSQDVAVSPQQQQCSKSYVDRHMESLSQSKSFRRRHNSWSSSSRHPNQATPKKSGLKNGQMKNKDDECFGDDIEEIPDTDFDFEGNLALLDKAAVFEEIDTYERRSGTRSRGIPNERPTRYRHDENILESEPIVYRRIIVPHNVSKEFCTDSGLVVPSISYELHKKLLSVAEKHGLTLERRLEMTGVCASQMALTLLGGPNRLNPKNVHQRPTVALLCGPHVKGAQGISCGRHLANHDVQVILFLPNFVKMLESITNELSLFSKTQGQQVSSLKDLPTSPVDLVINCLDCPENVFLRDQPWYKAAVAWANQNRAPVLSIDPPVHEVEQGIDAKWSLALGLPLPLGEHAGRIYLCDIGIPQQVFQEVGINYHSPFGCKFVIPLHSA [F213L], the “effect of a mutation on the interaction” value is listed as “with no effect”.

In a further assay the parent is B2. To be noted: with tri27_human TRIM27, P14373.
Consider R503Q, for which the “effect of a mutation on the interaction” value is listed as “with no effect”.

A further assay covers variants of B2. The conditions noted are these: with tri27_human TRIM27, P14373. This is another data set of the same source.
Consider E368K, for which the “effect of a mutation on the interaction” value is recorded as “with no effect”.

A further assay covers variants of B3. The conditions noted are these: with cdrt4_human CDRT4, Q8N9R6.
Regarding A127S, the “effect of a mutation on the interaction” value was “with no effect”.

In the next assay the parent is B4. To be noted: with ck054_human C11orf54, Q9H0W9.
Regarding A127S, the “effect of a mutation on the interaction” value is given as “with no effect”.

A further assay covers variants of B5. To be noted: with smug1_human SMUG1, Q53HV7.
A127S: the “effect of a mutation on the interaction” value is “with no effect”.

In a further assay the parent is B6. To be noted: with goga2_human GOLGA2, Q08379.
Take E368K: the “effect of a mutation on the interaction” value was “with no effect”.

In another assay the parent is B6. To be noted: with goga2_human GOLGA2, Q08379. This is another data set of the same source.
For the variant R503Q, the “effect of a mutation on the interaction” value is given as “with no effect”.
